Experimental findings from PMC3518592 (Structure (London, England : 1993), 2012) are described below.

The target in assay [1] is T1, ubiquitin (D77) (UniProt P0CG48 1-76, D77). The assay is described as follows: NMR titration.
In assay [2] the target is T1, ubiquitin (D77). As to the kind of experiment: ITC. On the technique in general: ITC needs no label: the signal is the heat of the interaction.
For assay [3], the target named is T1, ubiquitin (D77). As to the kind of experiment: ITC. This is another data set of the same source.

B1: gp78CUE domain (453–504) (domain or fragment, human, UniProt Q9UKV5 453-504, looked up)
chain: SNSQLNAMAHQIQEMFPQVPYHLVLQDLQLTRSVEITTDNILEGRIQVPFPT
As to B1, the Kd with ubiquitin (D77) [1] stood at 13.6 ± 12 µM; in the assay with ubiquitin (D77) [3], 12.8 ± 0.7 µM. The dH in the assay with ubiquitin (D77) [2] was -3.418 ± 0.0239 kcal/mol. Also, in the assay with ubiquitin (D77) [2], the “stoichiometry N” value turned out to be 0.91.

As usually defined, the Kd is the free concentration of one partner at which half of the binding sites on the other are occupied at equilibrium, for simple one-to-one binding. Read a high Kd as lower affinity. The stoichiometry N is the number of molecules, sites or subunits per partner or assembly.
